Values quoted from earlier work, collected in publication PMC10502159.
Blank lines part the entries; values can stand above or below the substance they belong to.

Legend:
[1] = molecular target: pCTS-L (procathepsin L) (Homo sapiens) (UniProt P07711); assay: OpenSPR
[2] = molecular target: EGFR ECD (Homo sapiens) (UniProt P00533); assay: SPR (Biacore)
[3] = molecular target: EGFR ECD (Homo sapiens) (UniProt P00533); assay: SPR (OpenSPR)
[4] = molecular target: TLR4 (Homo sapiens) (UniProt O00206); assay: OpenSPR
[5] = molecular target: TLR4 1-631 (Homo sapiens) (UniProt O00206); assay: SPR
TLR4 1-631 (Homo sapiens), sequence (O00206 1-631): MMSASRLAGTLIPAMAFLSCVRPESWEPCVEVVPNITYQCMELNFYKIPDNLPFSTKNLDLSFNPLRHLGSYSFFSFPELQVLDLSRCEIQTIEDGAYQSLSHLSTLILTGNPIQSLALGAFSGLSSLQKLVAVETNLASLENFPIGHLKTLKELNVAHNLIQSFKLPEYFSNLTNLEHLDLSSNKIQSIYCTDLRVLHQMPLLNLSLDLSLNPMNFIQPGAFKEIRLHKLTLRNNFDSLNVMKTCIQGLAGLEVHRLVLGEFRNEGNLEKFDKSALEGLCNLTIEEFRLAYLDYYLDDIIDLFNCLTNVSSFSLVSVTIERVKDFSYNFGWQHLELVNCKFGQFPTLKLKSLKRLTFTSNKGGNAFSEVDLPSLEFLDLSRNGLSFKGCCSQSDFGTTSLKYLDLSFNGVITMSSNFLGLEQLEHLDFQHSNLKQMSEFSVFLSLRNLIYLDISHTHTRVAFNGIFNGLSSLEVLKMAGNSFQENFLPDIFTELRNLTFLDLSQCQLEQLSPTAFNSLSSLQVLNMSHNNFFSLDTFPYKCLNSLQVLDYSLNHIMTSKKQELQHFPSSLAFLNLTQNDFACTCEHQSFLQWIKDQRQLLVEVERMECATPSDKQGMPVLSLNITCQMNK

dermcidin, sequence (P81605 20-110): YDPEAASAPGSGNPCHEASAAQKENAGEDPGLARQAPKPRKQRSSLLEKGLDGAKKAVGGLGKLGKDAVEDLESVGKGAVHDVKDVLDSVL
pCTS-L (procathepsin L), sequence (P07711 18-333): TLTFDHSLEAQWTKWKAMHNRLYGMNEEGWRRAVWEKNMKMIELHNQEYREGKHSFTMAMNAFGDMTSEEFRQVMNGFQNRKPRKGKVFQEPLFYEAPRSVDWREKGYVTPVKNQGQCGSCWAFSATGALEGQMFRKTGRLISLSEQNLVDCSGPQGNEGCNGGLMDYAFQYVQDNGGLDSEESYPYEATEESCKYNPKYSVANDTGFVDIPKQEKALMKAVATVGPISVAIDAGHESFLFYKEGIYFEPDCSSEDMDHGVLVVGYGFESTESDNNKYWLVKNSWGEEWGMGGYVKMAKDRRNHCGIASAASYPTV
pCTS-L (procathepsin L) (Homo sapiens), sequence (P07711 18-333): as above
procathepsin L (pCTS-L) 17-333, sequence (P07711 17-333): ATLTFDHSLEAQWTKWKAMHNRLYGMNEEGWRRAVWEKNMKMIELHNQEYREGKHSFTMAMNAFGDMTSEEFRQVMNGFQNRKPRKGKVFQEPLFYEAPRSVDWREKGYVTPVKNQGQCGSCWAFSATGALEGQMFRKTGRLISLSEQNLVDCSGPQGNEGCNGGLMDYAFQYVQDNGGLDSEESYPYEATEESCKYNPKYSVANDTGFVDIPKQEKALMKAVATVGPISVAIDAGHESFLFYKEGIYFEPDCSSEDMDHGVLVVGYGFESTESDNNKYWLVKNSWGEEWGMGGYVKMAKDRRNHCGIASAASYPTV
TLR4, sequence (O00206 24-631): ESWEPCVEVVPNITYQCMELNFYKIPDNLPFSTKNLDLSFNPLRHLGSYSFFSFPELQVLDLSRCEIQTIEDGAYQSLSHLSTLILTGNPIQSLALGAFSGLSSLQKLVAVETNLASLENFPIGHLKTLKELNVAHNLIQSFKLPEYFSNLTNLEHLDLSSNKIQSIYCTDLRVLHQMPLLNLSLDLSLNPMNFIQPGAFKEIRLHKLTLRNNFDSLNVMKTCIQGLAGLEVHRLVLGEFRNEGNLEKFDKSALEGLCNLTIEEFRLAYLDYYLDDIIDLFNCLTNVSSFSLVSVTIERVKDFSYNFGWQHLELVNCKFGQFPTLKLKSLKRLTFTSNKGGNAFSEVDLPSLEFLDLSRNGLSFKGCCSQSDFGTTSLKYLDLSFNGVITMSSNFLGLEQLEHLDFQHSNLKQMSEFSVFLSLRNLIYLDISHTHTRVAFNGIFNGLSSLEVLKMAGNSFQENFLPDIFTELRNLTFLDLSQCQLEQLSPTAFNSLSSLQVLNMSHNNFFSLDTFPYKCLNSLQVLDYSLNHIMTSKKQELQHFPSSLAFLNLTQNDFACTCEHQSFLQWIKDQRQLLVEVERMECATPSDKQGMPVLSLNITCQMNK
TLR4 (Homo sapiens), sequence (O00206 24-631): as above

Kd [1]: 64.6 nM
Substance: TLR4 (from UniProt O00206)

Kd [2]: 58.8 nM
Kd [3]: 58.1 nM
Substance: dermcidin (from UniProt P81605)

Kd [4]: 20.2 nM
Substance: pCTS-L (procathepsin L) (from UniProt P07711)

Kd [5]: 64.6 nM
Substance: procathepsin L (pCTS-L) 17-333 (from UniProt P07711)
